Test results taken from paper PMC9617004, “Cloning and characterization of thermophilic endoglucanase and its application in the transformation of ginsenosides” (AMB Express, 2022).

Tests used:
Assay in all cases: HPLC of ginsenoside conversion, Michaelis-Menten
Assay type in all cases: biochemical, Fervidobacterium pennivorans
Conditions in all cases: 50 mM phosphate-citrate, pH 6.0, 95 °C, substrate range stated as 0.5 to 10.0 mM (printed unit µM may be mM)
[1] = substrate: [H][C@@]1(O[C@@H]2[C@@H](O)[C@H](O)[C@@H](CO)O[C@@]2([H])O[C@H]2CC[C@]3(C)[C@@]4([H])C[C@@H](O)[C@]5([H])[C@@]([H])([C@](C)(CCC=C(C)C)O[C@@H]6O[C@H](CO[C@@H]7OC[C@H](O)[C@H](O)[C@H]7O)[C@@H](O)[C@H](O)[C@H]6O)CC[C@@]5(C)[C@]4(C)CC[C@@]3([H])C2(C)C)O[C@H](CO)[C@@H](O)[C@H](O)[C@H]1O
Excerpt: (§1) HPLC of ginsenoside conversion, Michaelis-Menten on BcelFp

[2] = substrate: CC(C)=CCC[C@](C)(O[C@@H]1O[C@H](CO[C@@H]2O[C@H](CO)[C@@H](O)[C@H](O)[C@H]2O)[C@@H](O)[C@H](O)[C@H]1O)[C@H]1CC[C@]2(C)[C@@H]1[C@H](O)C[C@@H]1[C@@]3(C)CC[C@H](O[C@@H]4O[C@H](CO)[C@@H](O)[C@H](O)[C@H]4O[C@@H]4O[C@H](CO)[C@@H](O)[C@H](O)[C@H]4O)C(C)(C)[C@@H]3CC[C@]12C
Excerpt: as §1

[3] = substrate: CC(C)=CCC[C@](C)(O[C@@H]1O[C@H](CO)[C@@H](O)[C@H](O)[C@H]1O)[C@H]1CC[C@]2(C)[C@@H]1[C@H](O)C[C@@H]1[C@@]3(C)CC[C@H](O[C@@H]4O[C@H](CO)[C@@H](O)[C@H](O)[C@H]4O[C@@H]4O[C@H](CO)[C@@H](O)[C@H](O)[C@H]4O)C(C)(C)[C@@H]3CC[C@]12C
Excerpt: as §1

B1: BcelFp (Fervidobacterium pennivorans DSM 9078) (protein)
chain: MDQSVAESDSNSALEYNKIIGKGVNIGNALEAPFEGAWGVRIEDEYFEIIKKRGFDSVRIPIRWSAHISEKPPYDIDRNFLERVKHVVDRALENNLTVIINTHHFEELYQEPDKYGNVLVEIWRQIAKFFKDYPENLFFEIYNEPAQNLTAEKWNELYPKVLKVIRESNPTRIVIIDAPNWAHYSAVRSLKLVNDKRIIVSFHYYEPFNFTHQGAEWVNPTPPVGVKWNGEEWEINQIRSHFKYVSDWAKQNKVPIFLGEFGAYSKADMDSRVKWTESVRKMAEEFGFSYAYWEFCAGFGIYDRWSQNWIEPLATAVVGESKE
notes: 323 residues (969 bp), N-terminal His-tag, pET28a BamHI/XhoI, E. coli BL21-CodonPlus(DE3)-RIL, Ni-NTA; calculated 37,892 Da, about 38 kDa by SDS-PAGE; forward primer starts … (MDQSVA)
Vmax [1]: 315 µM/min | kcat/Km [1]: 9390 M⁻¹ s⁻¹ | Km ([1]; unit of the source corrected): 4020 µM | Vmax [2]: 382 µM/min | kcat/Km [2]: 12500 M⁻¹ s⁻¹ | Km ([2]; unit of the source corrected): 3660 µM | Vmax [3]: 156 µM/min | kcat/Km [3]: 27900 M⁻¹ s⁻¹ | Km ([3]; unit of the source corrected): 670 µM
